Experiment: yeast display, Sf9 membrane polyspecificity reagent, FACS + sequencing; frameworks hold sequencing errors
Procedure, shortened: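 Using colony PCR, genes from sorted yeast display clones were amplified, then sequenced on MiSeq at 2 × 250 and filtered by CDR length. The clones had been stained with 10% biotinylated, detergent-solubilized Sf9 membrane reagent for 1 hour at 4 °C and sorted by FACS into low and high (top ~1%) gates on anti-HA and streptavidin fluorescence. Polyreactivity labels come from the gate of origin.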

| Sequence | polyreactivity (PSR sort gate) |
| --- | --- |
| QVQLVESGGGLVQAGGSLRLSCAASGSTFSNNAMAWYRQAPGKERELVAGINSSGGRTYYADSVKGRFTISRDNAKNTVYLQMISLKPEDTAVYYCAAESRYYYELGYWGQGTQVTVSS | high polyreactivity |
| QVQRVESGGGLVQAGGSLRLSCAASGFIFGRYAMGWYRQAPGKERELVAASTWGGDSTYYADSVKGRFTISRDNAKNTVYLQMNSLKPEDTAVYYCAAYPQRRFYWQYRYDYWGQGTQVTVSS | high polyreactivity |
| QVQLVESGGGLVQAGGSLRFSCAASGRTFVWYTMGWYRQAPGKERELVAAISSGGSTSYADSVKGRFTISRDNAKNTVYLQMNSLKPEDTAVYYCNAVWYVRYSGMDYWGQGTQVTVSS | high polyreactivity |
| QVQVVESGGGLVQAGGSLRLSCAASGSTFEYNAMGWYRQAPGKERELVASSTNYADSVKGRFTISRDNATNTVYLKMNSLKPEDTAVYYCAREQGVNRNHDYWGQGTQVTVSS | low polyreactivity |
| QVQLVESGGGLVQAGGSLRLSCAASGIIFQFYAMGWYRQAPGKERELVAAISRSGGITHYADSVKGRFTISRDNAKNTVYLQMNSLKPEDTAVYYCNAVQPARFVGGFGTGVDYWGQGTQVTVSS | high polyreactivity |
| QVQLVESGGGLVQAGGSLRLSCAASGFTFRYYAMGWSRQAPGKERELLAAITGRGGSTYYADSVKGRFTISRDNAKNTVYFQMNSLNPEDTAVSFCAARFTRVYAQVRNDYWGQGTQVTVSS | high polyreactivity |
| QVQLVESGGGLVQAGASLRLSCAASGRTYRWYTMGWYRPAPGKERELVAAITSRGGSTYADSVKGRFTISRDNAKNTVYLQMNSLKPEDTAVYYCNAARTYQYDYWGQGTQVTVSS | high polyreactivity |
| QVQLVESGGGLVQAGGSLRLSCAASGFTFYPYAMGWYRQAPGKERELVATISSGGTTNYADSVKGRFTISRDNAKNTVYLQMNSLKPEDTAVYYCAADYIRLFGPFDYWGQGTQVTVSS | low polyreactivity |
| QVQLVESGGGLVQAGGSLSLSCDASGSIIQGYAMGWYRQAPGKERELVAAISWSGTSTYYADSVKGRFTISRDNAKNTVYLQMNSLKPEDTEVYYCATDYYYYTAEYEYWGQGTQVTVSS | high polyreactivity |
| QVQLVESGGGLVQAGGSLRLSCAASGLILSRNTMGWYRQAPGKERELVAAITRRGGSTYYADSVKGRFTISRDNAKNTVYLQMNSLKPEDTAVYYCRLKVGTTSRWSYDYWGQGTQVTVSS | high polyreactivity |
| QVQLVESGGGLVQAGGSLRLICAASGITFYIYGMGWYRQAPGKERELVAAITSGGSTYYADSVKGRFTISRDNAKNTVYLQMNSLKPEDTAVYYCAAGRYYGKGYYYWGQGTQVTVSS | high polyreactivity |
| QVQLVESCGGLVQAGGSLRLSCADYGRTFGKYAMGWYRQSPGKERELVAAITYRGGTTYYEDSVKGRFTISRDNAKNTLYLQMNSLKPEDTAVYYCATAPGRRYDWGQGTQVTVSS | high polyreactivity |
| QDQLVESGGGLVQAGGSLRLSCAASGLTFPEYAMGWYRQAPGKERELVAAITWSGATTYYADSVKGRFTISRDNAKNTVYLQMNSLKPEDTAVYYCAAEYTVYNTALPGYYFTYYYWGQGTQVTVSS | high polyreactivity |
| QVQLVESGGGLVQAGGSLRLSCAASGSTYEIYAMGWYRQAPGKDRELVAAISSGGSTNYADSVKGRFTISRDNAKNTVYLQMNSLKPEDTAVYYCVYAIQFDYWGQGTQVTVSS | low polyreactivity |
| QVQHVESGGGLVQAGGSLRLRCAASGSIFYINAMGWYRQAPGQERELVAAITSDGSTYYADSVKGRFTISGDNAKNSVYLQINSLKPEDTAVYYCAADLTSDQYVYYWYWFYSWGQGTQVTVSS | low polyreactivity |
| QVQLVESGGGLVHAGGSLRLSCAASGSIYGANDMGWYRKATGKERELVAAITRSGTRTYYADSVKGLFTISRDNAKNTVYLQMNSLKPEDTAVYYCAAVLRLSTLTTDFGYWGQGTQVTVSS | high polyreactivity |
| QVQLVESGGGLVQAGGSLRLSCAASGSTIVVNAMGWYRQAPGKERELVAAISSNGGSYYADSVKGRFTISRDNAKNTVYLQMNSLKPEDTAVYYCAADSREEGDYWGQGTQVTVSS | low polyreactivity |
| QVQLVESGAGLVQAGGSLRLSCAASGSIFSPYDMGWYRPAPGKERELVAAISRSGRTHYADSVKGRFTISRDNAKNTVYLQMNSLKPEDTAVYYCAAGVVSGYYYWGHGTQVTVSS | high polyreactivity |
| QVQLVESGGGLVQAGGSLRLSCAASGRTFPYYAKGWYRQAPGKERELVAAISKRGGNTYYADSVKGRFTISRDNAKNTVYLQLNSLIPEVTAVYYCNALSSTEYDYWGQGTQVTVSS | high polyreactivity |
| QVQLVESGGGLVQAGGSLRLSCAASARTFTRYAIGWYRQAPGKERELVAAISFSVGSTYYADSVKGRFTISRDNAKYSVYLQMNRLKPEDTAVYYCARPSGDAWEGPRMDYWGQCTQVTVSS | low polyreactivity |
| QVQLVESGGGLVQAGGSLRLSCAASGRIFSNYAMGWYRQAPGKERELVAAITSGGNTYYADSVKGRFTISRDNAKNTVYLQMNSLKPEDTAVYYCATVFSVQGWYFGMNYWGQGSQVTVSS | low polyreactivity |
| QVQLVESGGGLVQAGGSLRLSCAASGITFPSYVMGWYRQAPGKEREFVAAITGSAGSTYYADSVKGRFTISRDNAKYTVYLQMNSLKPEDTAVYYCAARVRYVNPKYYYWGQGTQVTVSS | high polyreactivity |

| Sequence | polyreactivity (PSR sort gate) |
| --- | --- |
| QVQLVESGGGLVQAGGSLRLSCAASGFTFRWYAMGWYRQAPGKERELVAAISSGGGSTYYADSVKGRFTISRDNAKITVYLQMNSLKPEDTAVYYCNSRGTRIASGHYYWGQGTQVTVSS | high polyreactivity |
| QVQLEESGGGLVQAGGSLRLSCAASGFTFWLYAMGWYRQAPGKEREFVAAISTSGGSTYADSVKGRFTISRDNAKNTVYLQMNSLKPEDTAVYYCNAGYLLYYDYHLFYWGQGTQVTVSS | low polyreactivity |
| QVQLVESGGGLVQAGGSLRLSCPASGFIFRYYAMGWYRQAPGKERELVAAISWSGGSTYYADSVKGRFTISRDSAKNTVYLQIYSLKPEDTAVYYCGAEGFSYFIYWGQGSQVTVSS | high polyreactivity |
| QVQLVESGGGLVQAGGSLRLSCAASGSIFYINAMGWYRQAPGKEREFVATITWSGDSTYYADSVKGRFTISRDNAKNTVYLQMNSLKPDDTAVYYCNARKQYPSYVDWEYDYWGQGTQVTVSS | low polyreactivity |
| QVQLVESARGIVQAGGSLRLSSAASGFIFYSSAMGGYRQAPGYERELVAGITSGGITSYADSVKGRFTISRDNAKNTVYLQMNSLKPEYTAVYYCAAVVVYQNYNYYYWGQGTQVTVSS | high polyreactivity |
| QVQLVESGGGLVQAGGSLRLSCAASGFTSRTYAMGWYRQAPGKERELVAAITFSGGSTYYADSVKGRFTISRDNAKNTVYLQMNSLKPEDTAVYYCARDGLWYNAIWEYDYWGQGTQVTVSS | high polyreactivity |
| QVQLVESGGGLVQAGGSLRLSCAASGSIFDYYTMGWYRQAPGKERELVAAISWSGGSTYYADSVKGRFTISRDNAKNTVYLQMNSLKPEDTAVYYCNAVGYSRYTVWSYYYWGQGTQVTVSS | high polyreactivity |
| QVQLVESGGGLVQAGGSLRLSCAASGRIFPYYAMGWYRQAPGKERELVAAINRGGSTNYADSVKGRFTISRDNAKNTVYLQMNSLKPEDTAVYYCAALSRTHGVSYDYWGQGTQVTVSS | high polyreactivity |
| QVQLVESGGGLVQAGGSLRLSCAASGSIFFDGNAMGWYRQAPGKERELVAAISVSGGSTYYADSVKGRFTISRDNAKNTVYLQMNSLKPDDTAVYYCAKFPSKSYVPGDYWGQGTQVTVSS | low polyreactivity |
| QDQLVESGGGLVQAGVSLRLSCPASGNIFNGKAMGWYRQAPGKERELVAAISSGGGSTYYADSVKGRFTISRDNAMNTVYLQMNSLKPEDTAVYYCAASRVRYSYGYPYYYWGQGTQVTVSS | high polyreactivity |
| QVQLVESGGGLVQAGGSLRLSCAASGSTLPYYAMGWYRQAPGKEWELVAAITSSGGDTYYADSVKGRFTISRDNAKNTVYLQMNSLKTEDTAVYYCAKSYSARSTVRKLFYFAYDYWGQGTQVTVSS | low polyreactivity |
| QVQLLESGGGLVQAGGSDRLSCAASGSIFSFNAMGWYRQAPGKERELVAAISRGGSTYYADSVKGRFTISRDNAKNTVYLQLNSLKPEDTAVYYCAADIYGHSYSYYLGEYWGQGTQVTVSS | high polyreactivity |
| QVQLVESGGGLVQAGGSLRLSCAASGLTFPYYAMGWYRQAPGTERELVAAISGGGRTYYADSVKGRFTISRDNAKNTVYLQMNSLKPEDTAVYYCAPFHVGRYTGTVTDGYDYWGQGTQVTVSS | high polyreactivity |
| QVQLVESGGGLVQAGGSLRLSCAASGRTFPLYAMGWYRQAPGKERELVAAISYICGSTYYADSVKGLFTISRDNAKNTVYLQMNSLKPEDTAVYYCNADYNYAYDYWGQGTQVTVSS | low polyreactivity |
| QVQLVESGGGLVQAGGSLRLRCAASGRIYCDNATGRYRQAPGKESELVAPISDSVVITYYADSVKGRFTISRDNAKNTLYVQMNSLKPEDTAVYYCAADKRGTVYLSSFWMDYWGQGTQVTVSS | low polyreactivity |
| QVQLVESGGGLVQAGGSLRLSCAASGRIFFVYAMGWYRQAPGKERELVAAITASGGSTYYADSVKVRFTISRDNAKNSVYLQMNSLNPEDTAVYDCAAAGYGWGGYREYGWGQGTQVTVSS | low polyreactivity |
| QVQLVESGGGLVQAGGSLRLSCAASGFTFYKYVMGWYRQAPGKERELVAAITTSGGSTYYADSVKGRFTISRDNAKNTVYLQMNSLKPEDTAVYYCNARSLHTSEGDYWGQGTQVTVSS | low polyreactivity |
| QVQLVDSWGGLVQAGGSLRLSCAASGSIFTLYDMGWYRQAPGKERELVAAIDWSGGSTRYADSVKGRFTISRDNAKNTVYLQMNSLKPEDTAVYYCAKDLGGRYGRYRYDYWGQGTQVTVSS | high polyreactivity |
| QVQLVESGGGLVQAGGSLRLSCAASGRILAPYVMGWYRQAPGKERELVAAISRSTGRTYYADSVKGRFTISRDNAKNTVYLQMNSLKPEDTAVYYCNRDVRVSLMGYWGQGTQVTVSS | high polyreactivity |
| QVQLVESGGGLVQAGGSLRLSCADSGRIFVGNAMGWYRQAHGKERELVAAITSSGGSTYYADSVKGRFTISRDNAKNTVYLQMNSLKPEDTAVYYCAARVPYRLKAQPFSNRGYYWGQGTQVTVSS | high polyreactivity |
| QVQLVESGGALVQAGGSLRLSCAASGIILYYYAMGWYRQAPGKERELVAAISSGGNTYYADSVKGRFTISRDNAKNTVYLQMNSLKPEDTAVYYCAAVTVIGGEYDYWGQGTQVTVSS | low polyreactivity |
